Values belong to the molecule of their own block, whether it stands above or below them.
What was measured:
[1] = target: VosA_(1–190) dead, quadruple mutant of VosA with the mutations K37A, K39A, R41A, and K42A (A. nidulans); test: SEC-MALS; size exclusion chromatography and subsequent mass determination using MALS
[2] = target: VosA_(1–190), minimal velvet domain of VosA encompassing residues 1–190 (A. nidulans); test: as above
[3] = target: VosA_(1–190), minimal velvet domain of VosA encompassing residues 1–190 (A. nidulans); test: SEC; Superdex 200 (16/60) gel filtration column; elution volumes compared
VosA1-190 (VosA_cryst) = target: T1, VosA1-190 (VosA_cryst) (Aspergillus nidulans, UniProt Q5BBX1 1-190); test: EMSA; weaker than VosA_N; EMSA: 10 mM HEPES/NaOH pH 7.4, 150 mM NaCl, ~53 pmol DNA in 10 ul, RT 15 min; DNA:protein molar ratios 1:0.3 to 1:9; 6% PAGE, 0.5% TBE, ethidium bromide; details: protein: recombinant; tags: Strep-tag (C-terminal); chain copies: 2; blunt
T1 sequence: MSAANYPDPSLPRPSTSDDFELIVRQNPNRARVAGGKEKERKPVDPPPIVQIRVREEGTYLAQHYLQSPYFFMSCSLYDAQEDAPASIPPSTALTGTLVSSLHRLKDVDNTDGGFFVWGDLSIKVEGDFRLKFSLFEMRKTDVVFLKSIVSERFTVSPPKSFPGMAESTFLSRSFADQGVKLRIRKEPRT

VelB = VelB (Aspergillus nidulans, UniProt C8VTS4 1-369); test: EMSA; EMSA: 10 mM HEPES/NaOH pH 7.4, 150 mM NaCl, ~53 pmol DNA in 10 ul, RT 15 min; DNA:protein molar ratios 1:0.3 to 1:9; 6% PAGE, 0.5% TBE, ethidium bromide; details: protein: recombinant; tags: His6 (C-terminal); blunt
VelB, sequence (C8VTS4 whole entry): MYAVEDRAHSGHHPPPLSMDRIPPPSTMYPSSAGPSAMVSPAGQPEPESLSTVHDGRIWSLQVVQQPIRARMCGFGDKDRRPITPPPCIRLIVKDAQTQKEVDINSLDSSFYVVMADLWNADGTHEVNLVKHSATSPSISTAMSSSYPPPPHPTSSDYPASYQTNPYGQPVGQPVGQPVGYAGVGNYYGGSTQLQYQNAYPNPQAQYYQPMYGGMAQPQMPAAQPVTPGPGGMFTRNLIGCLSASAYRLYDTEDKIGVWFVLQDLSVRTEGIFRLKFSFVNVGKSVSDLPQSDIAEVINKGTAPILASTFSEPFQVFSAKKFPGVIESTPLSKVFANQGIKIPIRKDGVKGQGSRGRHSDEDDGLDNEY

VosA full-length = target: T2, VosA full-length (Aspergillus nidulans, UniProt Q5BBX1 1-430); test: as above; details: protein: recombinant; tags: GST (N-terminal, pGEX-5X-1); chain copies: 2; blunt
T2 sequence: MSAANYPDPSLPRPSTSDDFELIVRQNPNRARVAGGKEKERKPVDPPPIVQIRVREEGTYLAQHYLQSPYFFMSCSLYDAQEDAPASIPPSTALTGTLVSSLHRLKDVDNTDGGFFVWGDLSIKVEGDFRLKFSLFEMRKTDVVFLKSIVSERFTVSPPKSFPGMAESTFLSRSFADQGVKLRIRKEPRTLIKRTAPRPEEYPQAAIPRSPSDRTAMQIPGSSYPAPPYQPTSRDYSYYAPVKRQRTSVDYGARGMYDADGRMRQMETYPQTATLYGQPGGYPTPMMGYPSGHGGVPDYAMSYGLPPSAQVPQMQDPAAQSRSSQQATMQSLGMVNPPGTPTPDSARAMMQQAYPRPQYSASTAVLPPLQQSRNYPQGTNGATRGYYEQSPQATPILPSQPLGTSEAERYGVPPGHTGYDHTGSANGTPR

VosA_N = target: T3, VosA_N (Aspergillus nidulans, UniProt Q5BBX1 1-216); test: as above; details: protein: recombinant; tags: GST (N-terminal, pGEX-4T-3); chain copies: 2; blunt
T3 sequence: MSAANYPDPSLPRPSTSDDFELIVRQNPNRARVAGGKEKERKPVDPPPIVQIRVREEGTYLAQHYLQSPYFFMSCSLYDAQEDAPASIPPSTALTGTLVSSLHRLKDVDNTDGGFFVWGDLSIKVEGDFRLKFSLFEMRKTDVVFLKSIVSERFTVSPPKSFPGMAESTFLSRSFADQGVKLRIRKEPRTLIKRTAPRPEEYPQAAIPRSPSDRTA

VeA1-224 = target: T4, VeA1-224 (Aspergillus nidulans, UniProt C8VTV4 1-224); test: EMSA; binds as well as VosA1-190; EMSA: 10 mM HEPES/NaOH pH 7.4, 150 mM NaCl, ~53 pmol DNA in 10 ul, RT 15 min; DNA:protein molar ratios 1:0.3 to 1:9; 6% PAGE, 0.5% TBE, ethidium bromide; details: protein: recombinant; tags: Strep-tag (C-terminal); blunt
T4 sequence: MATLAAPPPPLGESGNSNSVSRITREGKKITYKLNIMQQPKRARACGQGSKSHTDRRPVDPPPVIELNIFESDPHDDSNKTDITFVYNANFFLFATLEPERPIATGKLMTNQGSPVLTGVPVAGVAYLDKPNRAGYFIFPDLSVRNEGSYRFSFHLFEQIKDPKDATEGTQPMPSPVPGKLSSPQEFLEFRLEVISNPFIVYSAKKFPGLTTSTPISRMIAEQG

- stoichiometry N [1]: 2
Molecule: VosA_(1–190) dead, quadruple mutant of VosA with the mutations K37A, K39A, R41A, and K42A (domain or fragment)

- stoichiometry N [2]: 2
- stoichiometry N [3]: 2
Molecule: VosA_(1–190), minimal velvet domain of VosA encompassing residues 1–190 (domain or fragment)

B1: brlA 35 bp probe (OHS301/302) (dsDNA)
DNA 1: ATTCGGCGACTAGGATCTTACTGGCCGCGGCCGAG
DNA 2: CTCGGCCGCGGCCAGTAAGATCCTAGTCGCCGAAT
- binding result (VosA1-190 (VosA_cryst)): binds
- binding result (VelB): no binding
- binding result (VosA full-length): binds
- binding result (VosA_N): binds
- binding result (VeA1-224): binds

Source: paper PMC3876986, “The Velvet Family of Fungal Regulators Contains a DNA-Binding Domain Structurally Similar to NF-κB”
